Among the data in article PMC3093407 are FRET efficiency against αAwt/αAwt and FRET efficiency against αBwt/αAwt values, retold here.

Assay [1] concerns the target CFP-tagged human αA-crystallin wild-type (human) (UniProt P02489). The assay is described as follows: FRET or BRET; acceptor photobleaching in living HeLa cells co-transfected for 48 h; CFP fusion as donor, YFP fusion as acceptor bleached at 514 nm; FRET efficiency from ten images per construct, three experiments; room temperature. A general note: Bioluminescence resonance energy transfer reports proximity on the nanometre scale.

Assay [2] has as its target CFP-tagged human αB-crystallin wild-type (human) (UniProt P02511). The description is as above.
Sequence of UniProt P02511 (P02511 whole entry): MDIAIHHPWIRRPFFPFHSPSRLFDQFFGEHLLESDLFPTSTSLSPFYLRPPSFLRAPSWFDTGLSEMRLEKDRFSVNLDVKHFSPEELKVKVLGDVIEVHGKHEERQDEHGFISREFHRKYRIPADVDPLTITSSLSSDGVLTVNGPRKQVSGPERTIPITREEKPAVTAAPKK

In assay [1], “YFP-tagged C-terminal truncated human αA-crystallin αA168 (from UniProt P02489 1-168) (domain or fragment)” displayed an FRET efficiency against αAwt/αAwt of 30 % lower.

Take “YFP-tagged C-terminal truncated human αA-crystallin αA172 (from UniProt P02489 1-172) (domain or fragment)”: in assay [1], the FRET efficiency against αAwt/αAwt came to 50 % higher. In addition, in assay [2], the FRET efficiency against αBwt/αAwt stood at 2 fold.

“YFP-tagged C-terminal truncated human αA-crystallin αA162 (from UniProt P02489 1-162) (domain or fragment)” yielded an FRET efficiency against αAwt/αAwt in assay [1] of 30 % lower.
